Measured values taken from US20170030918A1 (MOR NUCO ENTERPRISES, published 2017).

Assays:
serotransferrin = biological target: T1, serotransferrin (human, UniProt P02787 20-698); assay: 2-D gel / western blot of patient sera
T1 construct: Protein from patient sera on a denaturing 2-D blot; also called Serrotransferrin
Protocol: (§1) Serum was prepared from 5 ml of blood collected by venipuncture (with tourniquet) in standard B & D 13×100 (7 ml) vacutainer clot tubes (or equivalent) with or without hemoguard closure. After approximately 30 min at room temperature to allow for clotting, the clot was pelleted by centrifugation for 5 to 10 min at 2,500 to 3,000 rpm. Clot-free serum was decanted into a clean tube, labeled and analyzed fresh or stored frozen.
(§2) For western blot analysis, 30 μl of sera was added to 120 μl of Rehydration Buffer (7 M urea, 2 M thiourea, 2% (w/v) CHAPS [(3-[(3-cholamidopropyl)dimethylammonio]-1-propane-sulfonate), a nondenaturing zwitterionic detergent], 0.5% (w/v) ASB-14 (amidosulfobetaine-14, a zwitterionic detergent), 0.5% (v/v) ampholytes pH 3-10 (Bio-Rad), 0.5% (v/v) immobilized pH gradient (IPG) buffer pH 3-10 (Amersham-Pharmacia Biotech) and 65 mM dithiothreitol). The samples were quickly vortexed to mix sera with Rehydration Buffer. Four to six mg of protein were loaded for analysis. The samples were electrophoresed in the first dimension by using a commercial flatbed electrophoresis system (Ettan IPGphor 3, Amersham-Pharmacia Biotech) with IPG dry strips (Amersham). A linear pH range of 3 to 10 on 7 cm IPG strips was used. The IPG strips were rehydrated with the samples overnight at room temperature. […]

serum albumin = biological target: T2, serum albumin (human, UniProt P02768 25-609); assay: 2-D gel electrophoresis / western blot of patient sera
T2 construct: Protein from patient sera on a denaturing 2-D blot; also called Ab
Protocol: as §1, §2

T2 sequence (P02768 25-609 limits assumed): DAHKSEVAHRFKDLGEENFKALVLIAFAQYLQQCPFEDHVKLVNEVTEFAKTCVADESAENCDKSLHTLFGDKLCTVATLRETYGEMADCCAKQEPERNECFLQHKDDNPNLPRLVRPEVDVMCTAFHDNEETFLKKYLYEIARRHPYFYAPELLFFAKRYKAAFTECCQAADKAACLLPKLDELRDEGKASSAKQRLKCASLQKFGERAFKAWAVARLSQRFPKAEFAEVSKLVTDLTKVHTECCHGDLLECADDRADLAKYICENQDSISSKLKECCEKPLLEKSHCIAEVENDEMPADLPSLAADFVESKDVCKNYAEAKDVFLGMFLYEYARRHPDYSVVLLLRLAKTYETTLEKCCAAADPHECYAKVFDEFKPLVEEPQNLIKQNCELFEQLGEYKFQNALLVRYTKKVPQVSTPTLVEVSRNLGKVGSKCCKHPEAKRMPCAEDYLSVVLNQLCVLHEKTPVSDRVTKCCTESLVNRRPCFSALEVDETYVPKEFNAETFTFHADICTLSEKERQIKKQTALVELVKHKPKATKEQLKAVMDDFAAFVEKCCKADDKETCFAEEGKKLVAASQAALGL
T1 sequence (P02787 20-698 limits assumed): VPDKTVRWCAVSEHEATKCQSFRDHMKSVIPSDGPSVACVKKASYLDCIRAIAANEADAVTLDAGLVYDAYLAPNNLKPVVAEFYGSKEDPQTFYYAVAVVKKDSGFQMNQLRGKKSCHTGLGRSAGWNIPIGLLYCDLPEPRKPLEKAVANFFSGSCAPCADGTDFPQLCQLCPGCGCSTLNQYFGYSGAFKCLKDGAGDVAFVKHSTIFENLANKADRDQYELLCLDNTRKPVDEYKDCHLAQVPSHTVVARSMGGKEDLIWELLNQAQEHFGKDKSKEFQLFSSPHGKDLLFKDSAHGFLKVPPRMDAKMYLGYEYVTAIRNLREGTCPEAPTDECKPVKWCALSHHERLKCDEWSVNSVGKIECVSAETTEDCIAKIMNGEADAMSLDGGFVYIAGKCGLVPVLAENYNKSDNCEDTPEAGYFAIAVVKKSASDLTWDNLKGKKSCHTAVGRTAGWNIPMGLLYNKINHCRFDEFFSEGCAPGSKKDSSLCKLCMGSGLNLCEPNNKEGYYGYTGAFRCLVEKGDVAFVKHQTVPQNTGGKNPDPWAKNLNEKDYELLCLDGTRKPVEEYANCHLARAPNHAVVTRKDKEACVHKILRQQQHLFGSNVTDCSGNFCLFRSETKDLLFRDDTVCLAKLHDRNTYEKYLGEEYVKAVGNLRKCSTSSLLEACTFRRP

B1: recombinant anti-ENOX2 single chain variable region antibody carrying an S-tag, ScFv(S) (scFv)
scFv: EVKLQESGTEVVKPGASVKLSCKASGYIFTSYDIDWVRQTPEQGLEWIGWIFPGEGSTEYNEKFKGRATLSVDKSSSTAYMELTRLTSEDSAVYFCARGDYYRRYFDLWGQGTTVTVSSGGGGSGGGGSGGGGSENVLTQSPAIMSASPGERVTMTCSASSSIRYIYWYQQKPGSSPRLLIYDTSNVAPGVPFRFSGSGSGTSYSLTINRMEAEDAATYYCQEWSGYPYTFGGGTKLELKAKETAAAKFERQHMDS
notes: Derived from the hybridoma that makes the ENOX2-specific monoclonal antibody; also called pan ENOX2 recombinant scFv antibody; recombinant anti-ECTO-NOX antibody (single chain variable region ScFv)
binding result (serotransferrin): binds | binding result (serum albumin): no binding
